In patent US12329823B2 (The Scripps Research Institute, priority 2021, dated 2025):
Where “and” joins values, the source holds several entries; their conditions need not be identical. Identical values can stand only once. Like-named read-outs stand apart in the source and are kept apart here.

How the values were obtained:
[1] = in vivo; conditions: cynomolgus monkey
[2] = in vivo; conditions: dog
[3] = Pharmacokinetics in CD-1 mouse, I.V. or S.C. 1 mg/kg, plasma concentration by LC-MS; conditions: individual animals; for AUC(0-inf): AUCINF_pred; for MRT inf / MRT last: mouse, in vivo; for MRT inf: MRTINF_pred; for MRT last: MRTlast;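 for all read-outs here: peptide levels in plasma quantified by LC-MS across multiple sampling times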
Protocol: The peptide plasma concentration at various time points was determined using LC-MS.

[4] = biological target: cynomolgous monkey GLP1R (Macaca fascicularis, UniProt F8V479); assay: In vitro potency, cynomolgous monkey GLP1R activation (receptor-mediated cAMP synthesis); format: cell-based; conditions: Table 12; read-out: In Vitro Potency GLP1R EC50, Cyno
Protocol: (§1) GLP-1R-CRE or HEK293-GIPR-CRE cells were seeded in 384-well plates at a density of 5000 cells per well and cultured for 18 h in DMEM with 10% FBS at 37° C. and 5% CO2. Cells were treated with peptides in a dose dependent manner for 24 h, and receptor activation was reported by luminescence intensities, using One-Glo (Promega, WI) luciferase reagent following manufacturer's instruction. The EC50 of each peptide was determined using GraphPad Prism 6 software (GraphPad, San Diego, CA). Results are depicted in FIGS. 6A-6B, FIGS. 7A-7B, FIGS. 8A-8B, FIGS. 9A-9B, and Tables 7-12. Measurements of peptide conjugate potency were expressed as half maximal effective concentration (EC50) values.

[5] = biological target: T1, human GIPR (Homo sapiens, UniProt P48546); assay: In vitro receptor activation reporter assay (CRE-Luc, HEK293-GIPR-CRE cells; receptor-mediated cAMP synthesis); format: cell-based; conditions: Table 11, human
T1 construct: expressed in transfected cells; host or cells: HEK293 (CRE-HEK293, HEK293-GIPR-CRE)
T1 sequence (P48546 22-466): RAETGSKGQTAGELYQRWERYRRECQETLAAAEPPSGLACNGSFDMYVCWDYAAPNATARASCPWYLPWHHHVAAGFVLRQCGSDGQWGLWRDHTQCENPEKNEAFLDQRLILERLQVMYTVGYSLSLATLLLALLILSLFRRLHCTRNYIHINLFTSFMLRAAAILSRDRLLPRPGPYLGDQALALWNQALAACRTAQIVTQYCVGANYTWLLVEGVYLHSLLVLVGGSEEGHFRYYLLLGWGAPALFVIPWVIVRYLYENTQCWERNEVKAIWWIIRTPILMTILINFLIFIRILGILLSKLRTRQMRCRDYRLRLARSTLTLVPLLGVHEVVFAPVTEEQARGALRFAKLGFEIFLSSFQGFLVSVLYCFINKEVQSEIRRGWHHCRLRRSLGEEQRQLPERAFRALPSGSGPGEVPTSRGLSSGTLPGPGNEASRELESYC
Protocol: HEK293 cells were infected with lentivirus encoding firefly luciferase gene under the control of cAMP responsive element (CRE) promoter (Qiagen, The Netherlands) and then were selected using 1 μg mL^−1 puromycin (Life Technologies, Carlsbad) for 1 week. The surviving cells (referred to as CRE-HEK293) were expanded and then transfected with a G418 selective mammalian expression plasmid encoding human GLP-1R or GIPR. In brief, GLP-1R or GIPR plasmid was transfected into CRE-HEK293 cells using Lipofectamine 2000 and selected with 400 μg mL^−1 Geneticin (Life Technologies, Carlsbad, CA). Single colony stable cell line overexpressing CRE-luciferase and GLP-1R or GIPR (HEK293-GLP-1R-CRE or HEK293-GIPR-CRE) was then established for in vitro activity assay.

[6] = biological target: T2, dog GIPR (Canis lupus familiaris, UniProt A0A8I3MPG1); assay: In vitro potency, dog GIPR activation (receptor-mediated cAMP synthesis); format: cell-based; conditions: Table 12; read-out: In Vitro Potency GIPR EC50, Dog
T2 sequence (A0A8I3MPG1 24-449): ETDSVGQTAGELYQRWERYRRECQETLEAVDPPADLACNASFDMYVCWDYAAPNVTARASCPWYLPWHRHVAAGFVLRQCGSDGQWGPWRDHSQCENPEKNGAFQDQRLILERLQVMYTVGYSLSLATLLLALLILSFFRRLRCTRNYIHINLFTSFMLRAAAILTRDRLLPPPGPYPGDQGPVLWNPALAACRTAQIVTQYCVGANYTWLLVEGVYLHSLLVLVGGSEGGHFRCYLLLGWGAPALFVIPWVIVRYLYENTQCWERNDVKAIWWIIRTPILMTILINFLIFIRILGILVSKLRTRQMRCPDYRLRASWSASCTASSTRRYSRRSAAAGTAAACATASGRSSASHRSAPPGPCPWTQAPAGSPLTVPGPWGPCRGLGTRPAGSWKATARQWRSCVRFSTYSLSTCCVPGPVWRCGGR
Protocol: as §1

[7] = CD-1, mouse, plasma, iv, 1 mg/kg, Table 15, I.V. 1 mg/kg
[8] = CD-1, mouse, plasma, sc, 1 mg/kg, S.C.
[9] = Table 15, I.V. 1 mg/kg, 1 mg/kg
[10] = iv, 1 mg/kg, Table 15, I.V. 1 mg/kg

Sequence of cynomolgous monkey GLP1R (F8V479 24-463): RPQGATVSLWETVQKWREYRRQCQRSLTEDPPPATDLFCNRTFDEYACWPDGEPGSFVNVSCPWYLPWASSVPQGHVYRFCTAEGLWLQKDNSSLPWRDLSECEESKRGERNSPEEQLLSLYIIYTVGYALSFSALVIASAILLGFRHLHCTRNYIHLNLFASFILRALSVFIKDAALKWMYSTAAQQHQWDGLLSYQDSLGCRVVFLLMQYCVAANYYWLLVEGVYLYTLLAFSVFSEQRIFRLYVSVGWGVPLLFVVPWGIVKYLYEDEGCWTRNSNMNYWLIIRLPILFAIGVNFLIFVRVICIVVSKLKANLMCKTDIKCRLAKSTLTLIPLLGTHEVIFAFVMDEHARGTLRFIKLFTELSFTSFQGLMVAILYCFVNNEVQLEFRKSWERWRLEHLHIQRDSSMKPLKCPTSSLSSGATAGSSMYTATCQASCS

## CC[C@H](C)[C@H](NC(=O)[C@H](CC(C)C)NC(=O)[C@H](Cc1c[nH]c2ccccc12)NC(=O)[C@@H]1CSCC(=O)NCCN(C(=O)CCC(=O)NCCOCCOCCC(=O)NCCOCCOCCC(=O)NCCCC[C@H](NC(=O)CCCCCCCCCCCCCCCCC(=O)O)C(=O)O)CCNC(=O)CSC[C@H](NC(=O)[C@H](CCCCN)NC(=O)[C@H](CC(=O)O)NC(=O)[C@H](CC(C)C)NC(=O)[C@H](Cc2ccc(O)cc2)NC(=O)[C@@H](NC(=O)[C@H](CO)NC(=O)[C@H](Cc2ccc(O)cc2)NC(=O)[C@H](CC(=O)O)NC(=O)[C@H](CO)NC(=O)[C@@H](NC(=O)[C@H](Cc2ccccc2)NC(=O)[C@@H](NC(=O)CNC(=O)[C@H](CCC(=O)O)NC(=O)C(C)(C)NC(=O)[C@@H](N)Cc2ccc(O)cc2)[C@@H](C)O)[C@@H](C)O)[C@@H](C)CC)C(=O)N[C@@H](C)C(=O)N[C@@H](C)C(=O)NC(C)(C)C(=O)N[C@@H](CCC(=O)O)C(=O)N[C@@H](Cc2ccccc2)C(=O)N[C@@H](C(C)C)C(=O)N1)C(=O)N[C@@H](C)C(=O)NCC(=O)NCC(=O)N1CCC[C@H]1C(=O)N[C@@H](CO)C(=O)N[C@@H](CO)C(=O)NCC(=O)N[C@@H](C)C(=O)N1CCC[C@H]1C(=O)N1CCC[C@H]1C(=O)N1CCC[C@H]1C(=O)N[C@@H](CO)C(N)=O [mCMZ371, YAibEGT-FTSDY-SIYLD-KXAAAib-EFVXW-LIAGG-PSSGA-PPPS-NH2 (where each X is C) (SEQ ID NO: 61)]
[1]
  t1/2 in cynomolgus monkeys (in words): long t1/2
[1]; iv
  AUC(0-t): 267 µg·h/mL
  T last: 240 h
  Vd: 0.0538 L/kg
  clearance: 0.756 mL/h/kg
  half-life: 60.2 h
[1]; sc
  AUC(0-t): 156 µg·h/mL
  Cmax: 1740 ng/mL
  T last: 240 h
  Tmax: 24 h
  bioavailability: 58.5%
  half-life: 49.3 h
[2]
  t1/2 in dogs (in words): long t1/2
[2]; iv
  AUC(0-t): 25.6 µg·h/mL
  T last: 240 h
  Vd: 0.11 L/kg
  clearance: 1.19 mL/h/kg
  half-life: 71.9 h
[2]; sc
  AUC(0-t): 17.6 µg·h/mL
  Cmax: 150 ng/mL
  T last: 240 h
  Tmax: 24 h
  half-life: 62.7 h
[2]; sc, Bioavailability
  bioavailability: 68.7%
[3]; CD-1, mouse, plasma, iv, 1 mg/kg, AUC0_24, Table 15, I.V. 1 mg/kg
  AUC: 242 µg·h/mL
[3]; CD-1, mouse, plasma, iv, 1 mg/kg, AUC last, Table 15, I.V. 1 mg/kg
  AUC(0-t): 341 µg·h/mL
[3]; [7]
  AUC(0-inf): 344 µg·h/mL
  Tmax: 0.08 h
[3]; CD-1, mouse, plasma, iv, 1 mg/kg, C0, Table 15, I.V. 1 mg/kg
  C0: 15500 ng/mL
[3]; CD-1, mouse, plasma, iv, 1 mg/kg, Cmax, Table 15, I.V. 1 mg/kg
  Cmax: 15100 ng/mL
[3]; CD-1, mouse, plasma, iv, 1 mg/kg, Vss_pred, Table 15, I.V. 1 mg/kg
  Vd: 0.051 L/kg
[3]; CD-1, mouse, plasma, iv, 1 mg/kg, Vz_pred, Table 15, I.V. 1 mg/kg
  Vd: 0.038 L/kg
[3]; CD-1, mouse, plasma, iv, 1 mg/kg, t1/2, Table 15, I.V. 1 mg/kg
  half-life: 9.13 h
[3]; CD-1, mouse, plasma, sc, 1 mg/kg, AUC0_24, CD-1 mouse, S.C.
  AUC: 127 µg·h/mL
[3]; [8]
  AUC(0-inf): 274 µg·h/mL
  Tmax: 24 h
[3]; CD-1, mouse, plasma, sc, 1 mg/kg, AUCall, S.C.
  AUC: 267 µg·h/mL
[3]; CD-1, mouse, plasma, sc, 1 mg/kg, Cl_Fpred, S.C.
  CL/F: 7.2 mL/h/kg
[3]; CD-1, mouse, plasma, sc, 1 mg/kg, t1/2, CD-1 mouse, S.C.
  half-life: 10.7 h
[3]; CD-1 mouse, S.C., 1 mg/kg
  AUC0_24: 67.917 µg·h/mL and 95.28 µg·h/mL
  AUCINF_pred: 143.707 µg·h/mL and 202.468 µg·h/mL
  AUC_% Extrap_pred: 2.34% and 3.37% and 2.55%
  AUCall: 138.868 µg·h/mL and 197.314 µg·h/mL
  AUMC_% Extrap_pred: 7.05% and 10.52% and 7.78%
  Cl_Fpred: 14.4 mL/h/kg
  Cmax: 9259 ng/mL and 3389 ng/mL and 6337 ng/mL
  MRTINF_pred: 28.76 h and 28.77 h
  MRTlast: 26.63 h and 27.22 h
  Tlast: 72 h
  V_F_pred: 0.06 L/kg and 0.12 L/kg and 0.08 L/kg
  t1/2: 12.36 h and 11.01 h
[3]; Table 15, I.V. 1 mg/kg
  Tlast: 72 h
[3]; [9]
  AUC0_24: 255.418 µg·h/mL and 285.442 µg·h/mL
  AUC last: 355.565 µg·h/mL and 403.09 µg·h/mL
  AUCINF_pred: 359.258 µg·h/mL and 407.964 µg·h/mL
  AUC_% Extrap_pred: 0.75% and 1.03% and 1.19%
  AUMC_% Extrap_pred: 3.41% and 4.82% and 5.56%
  C0: 21060 ng/mL and 24603 ng/mL
  Cmax: 20910 ng/mL and 24203 ng/mL
  MRTINF_pred: 18.43 h and 18.65 h
  MRTlast: 17.72 h and 17.83 h
  Vss_pred: 0.054 L/kg and 0.046 L/kg
  Vz_pred: 0.04 L/kg and 0.036 L/kg
  t1/2: 10 h and 10.31 h
[3]; [10]
  MRT inf: 18.7 h
  MRT last: 18.2 h
[3]; sc, 1 mg/kg, CD-1 mouse, S.C.
  MRT inf: 29 h
  MRT last: 27.6 h
[4]
  EC50: 0.11 nM
[5]; In Vitro Potency GIPR EC50, 10% FBS, 10% FBS
  EC50: 0.04 ± 0.01 nM
[5]; No Serum, read-out: In Vitro Potency GIPR EC50, No Serum
  EC50: 0.01 nM
[6]
  EC50: 0.47 nM
